US20100145007A1 (Janssen / Centocor, published 2010)

T1: human LGR7 (human, UniProt Q9HBX9 1-757)
T1 construct: whole, on cells; also called relaxin receptor
T1 sequence (looked up): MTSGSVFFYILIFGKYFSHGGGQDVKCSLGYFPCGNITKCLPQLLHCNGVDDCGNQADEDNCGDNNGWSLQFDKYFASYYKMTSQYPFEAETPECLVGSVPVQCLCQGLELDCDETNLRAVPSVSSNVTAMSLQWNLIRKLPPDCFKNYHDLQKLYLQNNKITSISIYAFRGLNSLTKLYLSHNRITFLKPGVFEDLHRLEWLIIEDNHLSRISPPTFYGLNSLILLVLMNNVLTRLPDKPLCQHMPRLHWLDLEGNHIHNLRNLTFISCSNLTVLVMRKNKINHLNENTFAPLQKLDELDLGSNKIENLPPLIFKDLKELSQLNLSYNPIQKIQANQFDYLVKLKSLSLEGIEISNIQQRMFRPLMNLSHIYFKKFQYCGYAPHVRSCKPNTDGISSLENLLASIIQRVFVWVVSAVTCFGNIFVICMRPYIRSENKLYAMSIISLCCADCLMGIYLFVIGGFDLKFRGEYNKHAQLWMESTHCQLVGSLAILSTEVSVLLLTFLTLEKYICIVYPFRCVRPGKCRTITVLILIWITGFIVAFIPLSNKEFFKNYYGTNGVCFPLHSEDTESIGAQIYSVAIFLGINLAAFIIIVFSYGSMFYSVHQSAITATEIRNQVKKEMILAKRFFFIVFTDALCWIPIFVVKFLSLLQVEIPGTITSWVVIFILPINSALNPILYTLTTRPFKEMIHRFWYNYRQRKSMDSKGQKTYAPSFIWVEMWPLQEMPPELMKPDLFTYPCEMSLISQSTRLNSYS

T2: rat LGR7 (rat, UniProt Q6R6I6 1-758)
T2 construct: whole, on cells; also called recombinant rat LGR7
T2 sequence (looked up): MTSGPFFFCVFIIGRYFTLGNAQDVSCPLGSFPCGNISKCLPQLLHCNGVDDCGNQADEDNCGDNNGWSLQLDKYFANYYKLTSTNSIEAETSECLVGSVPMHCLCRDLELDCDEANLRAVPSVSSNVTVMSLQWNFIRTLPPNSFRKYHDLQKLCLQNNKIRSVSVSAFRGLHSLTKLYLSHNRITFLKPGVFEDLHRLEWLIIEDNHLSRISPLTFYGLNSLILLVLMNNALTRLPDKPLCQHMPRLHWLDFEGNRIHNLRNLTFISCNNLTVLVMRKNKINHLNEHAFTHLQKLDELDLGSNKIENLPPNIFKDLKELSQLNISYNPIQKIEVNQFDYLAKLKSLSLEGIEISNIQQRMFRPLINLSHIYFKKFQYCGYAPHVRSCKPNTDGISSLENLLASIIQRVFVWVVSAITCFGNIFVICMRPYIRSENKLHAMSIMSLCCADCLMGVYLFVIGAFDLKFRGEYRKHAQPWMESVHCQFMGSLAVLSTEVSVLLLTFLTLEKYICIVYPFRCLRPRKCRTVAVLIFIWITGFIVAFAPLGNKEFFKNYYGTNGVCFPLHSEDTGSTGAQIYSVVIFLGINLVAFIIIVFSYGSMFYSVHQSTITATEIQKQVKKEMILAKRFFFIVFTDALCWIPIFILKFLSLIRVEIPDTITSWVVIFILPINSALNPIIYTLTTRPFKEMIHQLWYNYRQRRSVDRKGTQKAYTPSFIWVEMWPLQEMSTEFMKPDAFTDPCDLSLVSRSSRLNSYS

T3: human GPCR135 (human, UniProt Q9NSD7 1-469)
T3 construct: whole, on cells; also called SALPR
T3 sequence (looked up): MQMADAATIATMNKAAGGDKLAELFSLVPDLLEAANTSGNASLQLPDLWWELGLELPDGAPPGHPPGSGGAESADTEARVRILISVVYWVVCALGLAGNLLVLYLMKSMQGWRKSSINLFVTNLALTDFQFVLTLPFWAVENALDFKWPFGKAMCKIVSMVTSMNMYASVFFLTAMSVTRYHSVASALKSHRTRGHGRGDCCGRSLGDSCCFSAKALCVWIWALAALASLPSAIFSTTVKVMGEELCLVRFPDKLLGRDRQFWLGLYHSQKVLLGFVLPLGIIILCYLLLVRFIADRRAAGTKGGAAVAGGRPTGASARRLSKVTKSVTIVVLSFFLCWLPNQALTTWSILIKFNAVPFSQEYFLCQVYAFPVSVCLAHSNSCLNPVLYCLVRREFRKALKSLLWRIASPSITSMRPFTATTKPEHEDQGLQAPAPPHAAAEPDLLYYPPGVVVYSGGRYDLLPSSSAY

B1: R3(BΔ23-27)R/I5 (peptide)
chain 1: RAAPYGVRLCGREFIRAVIFTCR
chain 2: EDLQTLCCTDGCSMTDLSALC
modifications: N-terminal pyro-Glu ("<E")
notes: Chimeric two-chain peptide; also called R3(Δ23-27)R/I5; R3(ΔB23-27)R/I5
B2: R3(BΔ23-27)R (peptide)
chain 1: RAAPYGVRLCGREFIRAVIFTCR
chain 2: DVLAGLSSSCCKWGCSKSEISSLC
notes: probably a misprint
B3: R3(BΔ24-27) (peptide)
chain 1: RAAPYGVRLCGREFIRAVIFTCG
chain 2: DVLAGLSSSCCKWGCSKSEISSLC
B4: R3(BΔ26-27) (peptide)
chain 1: RAAPYGVRLCGREFIRAVIFTCGGS
chain 2: DVLAGLSSSCCKWGCSKSEISSLC
B5: R3(BΔ25-27) (peptide)
chain 1: RAAPYGVRLCGREFIRAVIFTCGG
chain 2: DVLAGLSSSCCKWGCSKSEISSLC

What was measured:
human LGR7 [1] = target: T1, human LGR7; assay: radioligand competition, 50 pM 125I-relaxin-2 tracer, COS-7 cells transiently expressing human LGR7; NA = no affinity was observed in radioligand binding assay
Source text: (§1) COS-7 cells in 24-well tissue culture plates transiently expressing GPCR135, GPCR142 or LGR7 were used in radioligand binding assays as described by Liu et al., 2005a, J. Biol. Chem., 280:292-300. ¹²⁵I-Relaxin-3/INSL5 (¹²⁵I-R3/I5), a radiolabeled chimeric peptide with the human relaxin-3 B-chain and the human INSL5 A-chain (Liu et al., 2005b), was used at a final concentration of 50 pM as the tracer to characterize the binding properties of all truncated relaxin-3 peptides for GPCR135 and GPCR142. ¹²⁵I-relaxin-2 (PerkinElmer Biosciences, Boston) was used at a final concentration of 50 pM to characterize the binding properties of the truncated peptides for the relaxin receptor (LGR7). The results were analyzed by GraphPad Prism 4.0 software (Graphpad, San Diego). The IC₅₀ values, which are the ligand concentrations that inhibited 50% of the maximum specific binding, were then calculated.

rat LGR7 = target: T2, rat LGR7; assay: radioligand competition, 125I-relaxin-2 tracer, COS-7 cells transiently expressing rat LGR7
Source text: FIG. 3 illustrates that R3(BΔ23-27)R/I5 is bound by recombinant rat GPCR135 with high affinity, but not by rat LGR7. COS-7 cells transiently expressing recombinant rat GPCR135 or LGR7 were used to characterize the binding affinity of rat GPCR135 (A) and LGR7 for (B) R3(BΔ23-27)R/I5. ¹²⁵I-R3/I5 was used as the tracer for GPCR135 and ¹²⁵I-relaxin-2 was used as the tracer for LGR7 binding. Various concentrations of R3(BΔ23-27)R/I5 were used as the competitor and unlabeled human relaxin-3 was used as the positive control in the binding assay.
as §1, with “The IC₅₀ values, which are the ligand concentrations that inhibited 50% of the maximum specific binding, were then calculated.” left out

human GPCR142 = target: T4, human GPCR142 (human, UniProt Q8TDU9 1-374); assay: radioligand competition, 50 pM 125I-R3/I5 tracer, COS-7 cells transiently expressing human GPCR142
T4 construct: whole, on cells
T4 sequence (Q8TDU9 whole entry): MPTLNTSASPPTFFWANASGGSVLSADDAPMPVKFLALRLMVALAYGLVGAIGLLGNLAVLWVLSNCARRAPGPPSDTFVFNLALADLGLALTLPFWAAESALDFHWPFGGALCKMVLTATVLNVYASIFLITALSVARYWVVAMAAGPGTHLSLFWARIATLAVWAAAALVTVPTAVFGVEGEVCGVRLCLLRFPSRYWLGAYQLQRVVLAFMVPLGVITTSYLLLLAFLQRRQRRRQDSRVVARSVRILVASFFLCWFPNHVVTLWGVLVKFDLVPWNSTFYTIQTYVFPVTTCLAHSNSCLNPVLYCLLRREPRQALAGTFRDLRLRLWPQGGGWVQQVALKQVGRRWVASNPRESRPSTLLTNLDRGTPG
Source text: as §1

human GPCR135 = target: T3, human GPCR135; assay: radioligand competition, 50 pM 125I-R3/I5 tracer, COS-7 cells transiently expressing human GPCR135
Source text: as §1

rat GPCR135 [2] = target: T5, rat GPCR135 (rat, UniProt Q5Y987 29-469); assay: radioligand competition, 125I-R3/I5 tracer, COS-7 cells transiently expressing recombinant rat GPCR135
T5 sequence (Q5Y987 entry or part of it): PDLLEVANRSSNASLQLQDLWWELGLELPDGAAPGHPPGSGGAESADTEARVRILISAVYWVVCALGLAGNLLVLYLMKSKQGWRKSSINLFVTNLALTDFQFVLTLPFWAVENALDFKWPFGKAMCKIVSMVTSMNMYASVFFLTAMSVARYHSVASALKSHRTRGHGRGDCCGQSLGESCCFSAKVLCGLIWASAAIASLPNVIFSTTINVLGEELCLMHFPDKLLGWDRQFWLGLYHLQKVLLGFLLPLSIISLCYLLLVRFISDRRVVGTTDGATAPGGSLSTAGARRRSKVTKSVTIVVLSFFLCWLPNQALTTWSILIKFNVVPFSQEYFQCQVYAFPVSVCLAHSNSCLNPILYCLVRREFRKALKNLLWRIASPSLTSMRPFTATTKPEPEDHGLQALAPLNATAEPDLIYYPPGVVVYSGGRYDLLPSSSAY

rat GPCR135 [3] = target: T5, rat GPCR135; assay: autoradiography, displacement of 125I-R3/I5 from endogenous GPCR135 in rat brain sections
human LGR7 [4] = target: T1, human LGR7; assay: radioligand competition, 50 pM 125I-relaxin-2 tracer, COS-7 cells transiently expressing human LGR7
Source text: as §1

human LGR7 [5] = target: T1, human LGR7; assay: cell-based or functional assay

| Binder | binding result (human LGR7 [1]) | binding result (rat LGR7) | IC50 (human GPCR142) | IC50 (human GPCR135) | IC50 (rat GPCR135 [2]) | IC50 (rat GPCR135 [3]) | IC50 (human LGR7 [4]) | EC50, stimulation of β-gal expression in SK-N-MC/CRE-β-gal cells expressing human LGR7 (human LGR7 [5]) |
| --- | --- | --- | --- | --- | --- | --- | --- | --- |
| B1 | no binding | no binding | 2.29 nM | 0.67 nM | 0.25 nM | 0.4 nM |  |  |
| B2 |  |  | 3.91 nM | 0.95 nM |  |  | ~200 nM |  |
| B3 |  |  | 18.9 nM | 13.5 nM |  |  | 8.9 nM | 4.3 nM |
| B4 |  |  | 9.5 nM | 11.5 nM |  |  | 6.3 nM | 3.3 nM |
| B5 |  |  | 11.9 nM | 9.5 nM |  |  | 7.9 nM | 4.1 nM |
